Among the data in paper PMC3290555 are stoichiometry N values, retold here.

As a reminder, the stoichiometry N is a count of units in the complex or per binding partner.

For assay [1], the target named is N-terminal domain of murine CNPase (residues -1-160) (mouse). Nature of the assay: SEC; Superdex 75 10/300 GL; 20 mM Na-HEPES pH 8, 200 mM NaCl, 1 mM DTT; 250 µl at 1.7 mg/ml injected; molecular weight markers run under the same conditions. On the technique in general: SEC sorts molecules by how far they enter the pores of the column.
Assay [2] concerns the target full-length CNPase construct (residues -1-378), mouse 2',3'-cyclic nucleotide 3'-phosphodiesterase lacking the 22-residue C-terminal tail (mouse). Nature of the assay: SEC-MALS; Sephadex S-200 column with online light scattering and refractive index detectors; 20 mM Bis-Tris-HCl pH 5.5, 300 mM NaCl, 1% glycerol, 1 mM DTT; monomer-dimer equilibrium.

“N-terminal domain of murine CNPase (residues -1-160) (domain or fragment)” returned a stoichiometry N in assay [1] of 2.

“full-length CNPase construct (residues -1-378), mouse 2',3'-cyclic nucleotide 3'-phosphodiesterase lacking the 22-residue C-terminal tail (enzyme)” yielded a stoichiometry N in assay [2] of 2.
